From PMC3626623, “Homo-dimerization and ligand binding by the leucine-rich repeat domain at RHG1/RFS2 underlying resistance to two soybean pathogens” (BMC Plant Biology, 2013)
No end group written: not given here.

Each molecule was assayed on GmRLK18-1 LRR domain (assay: Far Western analysis of total root proteins probed with the LRR domain). Conditions: 2 D gels of total root proteins of SCN inoculated plants, identified by MS/MS; cyclophilin at 10 dai, methionine synthase at 28 dai.
Format: binding, Glycine max
From the text: For Far-Westerns the LRR domain was used as a probe to filters transferred from 1 or 2 D gels. As the secondary probe, anti-his antibody conjugated to HRP (1–10,000 dilution; Invitrogen, Carlsbad CA) was used. Spots and bands were picked manually and the proteins in them digested with trypsin and identified by direct infusion MS/MS following the methods in [31].
With “cyclophilin: soybean root cyclophilin, 182 amino acids, matches gi 17981611, 19,392 d, pI 8.38” the “binding to the LRR domain in Far Western (in words)” value was “avidly bound to the LRR”.

The molecules below were run against GmRLK18-1 LRR domain expressed in E. coli (soybean (Glycine max)) (assay: native gel or EMSA; 12% (w/v) non-denatured PAGE of purified, refolded GmRLK18-1-LRR from E. coli; bands eluted and run again on SDS-PAGE). Conditions: not given.
For “GmRLK18-1 LRR domain expressed in E. coli (domain or fragment)”, the stoichiometry N was 2.

The molecules below were run against GmRLK08-1 LRR domain expressed in E. coli (soybean (Glycine max)) (assay: fluorescence polarisation; FITC-labelled peptides in 20 mM phosphate buffer pH 6.9 in a cuvette, 5 nM aliquots, increase in polarisation; baseline of non-CLE and non-LRR peptides subtracted; Kd from double reciprocal Scatchard plots; 3 repeats with 3 protein preparations; apparent for peptide L). Conditions: not given.
Molecule RTVPSGPDPLHH (not fully specified (N-terminus); also: labeled with FITC) [CLE peptide 3] has a Kd of 50 nM. SKRRVPNGPDPIHNR (not fully specified (N-terminus); also: labeled with FITC) [CLE peptide 36] showed a Kd of 52 nM. Molecule KRLSPSGPDPHHH (not fully specified (N-terminus); also: labeled with FITC) [CLE peptide N] has a Kd of 78 nM. Molecule KGLGLHEEELRTVPSGPDPLHHHVNPPRQPR (not fully specified (N-terminus); also: labeled with FITC) [CLE peptide 3L] has a Kd of 142 nM. Work on AHEVPSGPNPISNR (not fully specified (N-terminus); also: labeled with FITC) [CLE peptide T] yielded a Kd of 204 nM. Molecule RAELDFNYMSKRRVPNGPDPIHNRRAGNSGR (not fully specified (N-terminus); also: labeled with FITC) [CLE peptide 36L] has a Kd of 51 nM. With CTLSRLKTLDISNNALNGNLPATLSNLS (not fully specified (N-terminus); also: labeled with FITC) [LRR peptide L of GmRLK18-1] the Kd was 135 nM. Molecule DLPLAPADRLAGGPDPQHNVRAPPRKP (not fully specified (N-terminus); also: labeled with FITC) [CLE peptide 2L] has a Kd of 338 nM. RLAPGGPDPQHN (not fully specified (N-terminus); also: labeled with FITC) [CLE peptide 2] was tested, and the Kd was 96 nM. RLAPEGPDPHHN (not fully specified (N-terminus); also: labeled with FITC) [CLE peptide 30] gave a Kd of 84 nM.

These molecules were tested against GmRLK18-1 LRR domain expressed in E. coli (soybean (Glycine max)) in the same assay as above. Conditions: not given.
RTVPSGPDPLHH (not fully specified (N-terminus); also: labeled with FITC) [CLE peptide 3] was tested, and the Kd was 29 nM. With SKRRVPNGPDPIHNR (not fully specified (N-terminus); also: labeled with FITC) [CLE peptide 36] the Kd was 14 nM. In the case of KRLSPSGPDPHHH (not fully specified (N-terminus); also: labeled with FITC) [CLE peptide N], the Kd is reported as 30 nM. KGLGLHEEELRTVPSGPDPLHHHVNPPRQPR (not fully specified (N-terminus); also: labeled with FITC) [CLE peptide 3L] gave a Kd of 65 nM. AHEVPSGPNPISNR (not fully specified (N-terminus); also: labeled with FITC) [CLE peptide T] gave a Kd of 20 nM. In the case of RAELDFNYMSKRRVPNGPDPIHNRRAGNSGR (not fully specified (N-terminus); also: labeled with FITC) [CLE peptide 36L], the Kd is reported as 49 nM. Molecule CTLSRLKTLDISNNALNGNLPATLSNLS (not fully specified (N-terminus); also: labeled with FITC) [LRR peptide L of GmRLK18-1] has a Kd of 36 nM. Molecule DLPLAPADRLAGGPDPQHNVRAPPRKP (not fully specified (N-terminus); also: labeled with FITC) [CLE peptide 2L] has a Kd of 142 nM. For RLAPGGPDPQHN (not fully specified (N-terminus); also: labeled with FITC) [CLE peptide 2], the Kd was 45 nM. Work on RLAPEGPDPHHN (not fully specified (N-terminus); also: labeled with FITC) [CLE peptide 30] yielded a Kd of 44 nM.
